Among the data in US20250304690A1 (HANGZHOU VIROMAB BIOTECH, published 2025) are EC50 values, retold here.

For orientation: EC50 means the midpoint of the concentration-response curve.

Positions count from the first letter of the chain named.

First the molecules themselves.
B1: BK-A-101 (bispecific antibody, human IgG1, kappa)
heavy: not shown
light: QAVVTQESALTTSPGETVTLTCRSSTGAVTTSNYANWVQEKPDHLFTGLIGGTNKRAPGVPARFSGSLIGDKAALTITGAQTEDEAIYFCALWYSNLWVFGGGTKLTVLRTVAAPSVFIFPPSDEQLKSGTASVVCLLNNFYPREAKVQWKVDNALQSGNSQESVTEQDSKDSTYSLSSTLTLSKADYEKHKVYACEVTHQGLSSPVTKSFNRGEC
notes: also called bispecific antibody; the bispecific antibody
B2: BK-D-08 (bispecific antibody, human IgG1, kappa)
heavy: QVQLVQSGAEVKKPGASVKVSCKASGYTFTNYYMKWVKQAPGQRLEWMGDLNPNNGDTFYNQKFKGRVTITVDKSASTAYMELSSLRSEDTAVYYCARTGRYEENAMDYWGQGTLVTVSSASTKGPSVFPLAPSSKSTSGGTAALGCLVKDYFPEPVTVSWNSGALTSGVHTFPAVLQSSGLYSLSSVVTVPSSSLGTQTYICNVNHKPSNTKVDKRVEPKSCDKTHTCPPCPAPEFEGGPSVFLFPPKPKDTLMISRTPEVTCVVVDVSHEDPEVKFNWYVDGVEVHNAKTKPREEQYNSTYRVVSVLTVLHQDWLNGKEYKCKVSNKALPASIEKTISKAKGQPREPQVYTLPPSREEMTKNQVSLTCLVKGFYPSDIAVEWESNGQPENNYKTTPPVLDSDGSFFLYSKLTVDKSRWQQGNVFSCSVMHEALHNHYTQKSLSLSPGKGGGGSGGGGSGGGGSQAVVTQEPSLTVSPGGTVTLTCRSSTGAVTTSNYANWVQQKPGQAPRGLIGGTNKRAPWTPARFSGSLLGGKAALTLSGAQPEDEAEYYCALWYSNLWVFGGGTKLTVLGGGGSGGGGSGGGGSEVQLVESGGGLVQPGGSLRLSCAASGFTFNTYAMNWVRQAPGKGLEWVARIRSKYNNYATYYADSVKDRFTISRDDSKNILYLQMNSLKTEDTAMYYCVRHGNFGNSYVSWFAYWGQGTLVTVSA
light: DIVLTQSPASLAVSPGQRATITCRASESVDSYGKSFMHWYQQKPGQPPKLLIYRASNLESGVPARFSGSGSRTDFTLTINPVEANDTANYYCQQNNEDPWTFGQGTKLEIKRTVAAPSVFIFPPSDEQLKSGTASVVCLLNNFYPREAKVQWKVDNALQSGNSQESVTEQDSKDSTYSLSSTLTLSKADYEKHKVYACEVTHQGLSSPVTKSFNRGEC
B3: BK-D-02 (bispecific antibody, human IgG1, kappa)
heavy: B2 heavy with R44S, M48I, R67K, V68A, I70L, S84N
light: B2 light with I2L, L4M, Q42L
B4: BK-D-03 (bispecific antibody, human IgG1, kappa)
heavy: B2 heavy with I669S, M684V
light: B2 light with I2L, L4M, Q42L
B5: BK-D-04 (bispecific antibody, human IgG1, kappa)
heavy: B2 heavy with T525V, G536D, P547T, I669S, M684V
light: B2 light
B6: BK-D-05 (bispecific antibody, human IgG1, kappa)
heavy: B2 heavy with L542I, S543T, P547T, M684V
light: B2 light
B7: BK-D-06 (bispecific antibody, human IgG1, kappa)
heavy: B2 heavy with Q505E, T525V, G536D, P547T, M684V
light: B2 light
B8: BK-D-01 (bispecific antibody, human IgG1, kappa)
heavy: B2 heavy with R44S, M48I, R67K, V68A, I70L, S84N, I669S, M684V
light: B2 light
B9: CD3 Ab07 (antibody, human IgG1, kappa, V domains shown)
VH: EVQLVESGGGLVQPGGSLRLSCAASGFTFNTYAMNWVRQAPGKGLEWVARIRSKYNNYATYYADSVKDRFTISRDDSKNILYLQMNSLKTEDTAVYYCVRHGNFGNSYVSWFAYWGQGTLVTVSA
VL: QAVVTQEPSLTVSPGGTVTLTCRSSTGAVTTSNYANWVQQKPGQAPRGLIGGTNKRAPWTPARFSGSLLGGKAALTLSGAQTEDEAEYYCALWYSNLWVFGGGTKLTVLR
notes: also called humanized anti-CD3 monoclonal antibody
B10: CD3 Ab14 (antibody, human IgG1, kappa, V domains shown)
VH: B9 VH with V95M
VL: B9 VL with T60V, G71D
notes: as for B9
B11: CD3 Ab13 (antibody, human IgG1, kappa, V domains shown)
VH: B9 VH with V95M
VL: B9 VL with L77I, S78T
notes: as for B9
B12: CD3 Ab08 (antibody, human IgG1, kappa, V domains shown)
VH: B9 VH
VL: B9 VL with L77I, S78T
notes: as for B9
B13: CD3 Ab09 (antibody, human IgG1, kappa, V domains shown)
VH: B9 VH
VL: B9 VL with T60V, G71D
notes: as for B9
B14: CD3 Ab04 (antibody, human IgG1, kappa, V domains shown)
VH: B9 VH with I80S
VL: B9 VL with T60V, G71D
notes: as for B9
B15: CD3 Ab06 (antibody, human IgG1, kappa, V domains shown)
VH: B9 VH
VL: B9 VL with T82P
notes: as for B9
B16: CD3 Ab15 (antibody, human IgG1, kappa, V domains shown)
VH: B9 VH with V95M
VL: B9 VL with Q40E, T60V, G71D
notes: as for B9
B17: CD3 Ab11 (antibody, human IgG1, kappa, V domains shown)
VH: B9 VH with V95M
VL: B9 VL with T82P
notes: as for B9
B18: CD3 Ab12 (antibody, human IgG1, kappa, V domains shown)
VH: B9 VH with V95M
VL: B9 VL
notes: as for B9
B19: CD3 Ab05 (antibody, human IgG1, kappa, V domains shown)
VH: B9 VH with I80S
VL: B9 VL with Q40E, T60V, G71D
notes: as for B9
B20: CD3 Ab03 (antibody, human IgG1, kappa, V domains shown)
VH: B9 VH with I80S
VL: B9 VL with L77I, S78T
notes: as for B9
B21: CD3 Ab01 (antibody, human IgG1, kappa, V domains shown)
VH: B9 VH with I80S
VL: B9 VL with T82P
notes: as for B9
B22: CD3 Ab10 (antibody, human IgG1, kappa, V domains shown)
VH: B9 VH
VL: B9 VL with Q40E, T60V, G71D
notes: as for B9
B23: CD3 Ab02 (antibody, human IgG1, kappa, V domains shown)
VH: B9 VH with I80S
VL: B9 VL
notes: as for B9
B24: BK-D-09 (bispecific antibody, human IgG1, kappa)
heavy: B2 heavy with P547T, M684V
light: B2 light

T1 sequence (P07766 23-207): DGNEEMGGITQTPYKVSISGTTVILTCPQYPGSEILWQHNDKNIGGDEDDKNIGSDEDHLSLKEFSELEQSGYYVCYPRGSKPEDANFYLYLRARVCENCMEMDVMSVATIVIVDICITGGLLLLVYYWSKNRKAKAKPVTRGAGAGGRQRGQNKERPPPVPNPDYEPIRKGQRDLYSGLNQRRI

The target of the first assay is TT3 labeling polypeptide on cells. Put plainly: flow cytometry on HCT116-TT3 cells.
TT3 labeling polypeptide on cells, sequence (P01732 other isoform, or with tags, fused parts or gaps limits assumed): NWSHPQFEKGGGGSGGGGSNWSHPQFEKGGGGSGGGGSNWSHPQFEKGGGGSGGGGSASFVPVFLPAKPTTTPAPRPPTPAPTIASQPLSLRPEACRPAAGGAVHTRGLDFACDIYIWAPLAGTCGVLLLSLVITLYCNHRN
The molecule B1 showed an EC50 of 15.8 nM.

In the case of B2, it took 0.368 nM to reach a half-maximal effect (EC50).

In the case of B3, a half-maximal response (EC50) required 0.099 nM.

In turn, B4 returned an EC50 of 0.464 nM.

Turning to B5, a half-maximal response (EC50) required 0.47 nM.

B6 displayed an EC50 of 1.04 nM.

The molecule B7 showed an EC50 of 0.908 nM.

As for B8, the half-maximal effective concentration (EC50) stood at 0.07 nM.

Another assay has as its target T1, CD3 on Jurkat cells and on human T cells (human, UniProt P07766 23-207).
T1 construct: whole, on cells; also called CD3 end; CD3 antigen
In words: flow cytometry on Jurkat cells. On the technique in general: A flow cytometer gives signals particle by particle.
Description: (§1) Then diluted antibodies with different concentrations were added. The cells were incubated at 4° C. for 0.5 h, centrifuged at 1200 rpm for 3-5 min, and washed with a FACS buffer. Then a goat anti-human IgG secondary antibody (manufacturer: Abcam, ab98596) was added at 100 L/well. The cells were incubated at 4° C. for 0.5 h, centrifuged at 1200 rpm for 3-5 min, washed with a FACs buffer, and resuspended in 50 μL of a FACs buffer, and assays were performed using a flow cytometer.
With B9, the EC50 is 2.42 nM.

For B10, the concentration for a half-maximal effect (EC50) turned out to be 1.14 nM.

On to B11, for which the EC50 is 3.19 nM.

In the case of B12, it took 1.82 nM to reach a half-maximal effect (EC50).

B13 registered a concentration giving a half-maximal response (EC50) of 0.862 nM. Compared with the last molecule, the EC50 is about 2.1-fold lower.

In turn, B14 gave an EC50 of 1.18 nM.

B15: the 50% effective concentration (EC50) worked out at 3.31 nM.

B16 came in with a half-maximal effective concentration (EC50) of 1.11 nM.

In the case of B17, it took 4.45 nM to reach a half-maximal effect (EC50).

Molecule B18 came in with an EC50 of 3.52 nM. This EC50 and that of the molecule before are within 1.5-fold of each other.

The molecule B19 came in with an EC50 of 1.02 nM.

Consider B20, for which a half-maximal effect (EC50) was put at 2.28 nM.

For B21, the EC50 amounted to 3.3 nM.

B22 showed an EC50 of 0.784 nM.

On to B23, for which a half-maximal effect (EC50) was put at 2.64 nM.

For another assay, the target named is hCD3 (human CD3 antigen) (human, UniProt P07766 23-126). In words: ELISA, plate-coated hCD3. In general terms: ELISA stands for enzyme-linked immunosorbent assay.
hCD3 (human CD3 antigen), sequence (P07766 23-126): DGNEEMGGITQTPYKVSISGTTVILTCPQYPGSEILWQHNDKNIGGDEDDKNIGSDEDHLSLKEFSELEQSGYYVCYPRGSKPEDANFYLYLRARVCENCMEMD
Description: The activity of the prepared humanized antibodies was assessed by ELISA as follows: hCD3 (human CD3 antigen) was diluted to 0.5 g/mL using a coating solution and then added to a 96-well plate at 100 μL/well, and the plate was incubated overnight at 4° C. The plate was washed with PBST. Then 200 µL of a blocking solution was added to each well, and blocking was performed at a temperature of 37° C. for 2 h. The plate was washed with PBST. Then diluted antibodies (the initial concentration was 40 nM, and serial dilution was performed in a 1:6 ratio) were added at 100 L/well, and the plate was incubated at a temperature of 37° C. for 2 h. The plate was washed with PBST. Then an HRP-labeled goat anti-human IgG was added at 100 L/well, and the plate was incubated at 37° C. for 1 h. The plate was washed with PBST, and TMB was added at 100 L/well. Color development was performed at 37° C. for 10-20 min, and 50 µL of 2 M H₂SO₄ was added to each well to stop the reaction. Readings were taken at 450 nm.
In turn, B9 had an EC50 of 0.0129 nM. This counts as picomolar.

On to B10, for which the EC50 was determined as 0.0087 nM.

B11 yielded an EC50 of 0.0099 nM.

In the case of B12, the midpoint of the response, the EC50, lay at 0.0116 nM. This EC50 and that of the molecule before are within 1.5-fold of each other.

In the case of B13, the EC50 came to 0.008 nM.

With B14, the concentration for a half-maximal effect (EC50) was determined as 0.0068 nM.

B15: the EC50 turned out to be 0.0126 nM.

B16 came in with a concentration for a half-maximal effect (EC50) of 0.0099 nM.

Turning to B17, the EC50 was determined as 0.0118 nM.

The molecule B18 showed a concentration for a half-maximal effect (EC50) of 0.0095 nM.

On to B19, for which the concentration for a half-maximal effect (EC50) was 0.0099 nM.

B20 registered a concentration giving a half-maximal response (EC50) of 0.0042 nM.

B21 had a half-maximal effective concentration (EC50) of 0.0096 nM. This EC50 lies about 2.3-fold higher than the previous one.

With B22, the concentration giving a half-maximal response (EC50) worked out at 0.002 nM. Against the preceding molecule, the EC50 is about 4.8-fold lower.

B23 yielded a 50% effective concentration (EC50) of 0.0117 nM.

Another assay deals with CD3 on 293T-CD3 cells. In words: flow cytometry on 293T-CD3 cells.
CD3 on 293T-CD3 cells, sequence (chain, as listed by the source): as the sequence (P07766 23-207) above
Description: as §1
For the molecule B9, the concentration for a half-maximal effect (EC50) worked out at 9.02 nM. That is a single-digit nanomolar value.

B10 came in with an EC50 of 5.73 nM.

As to B11, the half-maximal effective concentration (EC50) worked out at 12.4 nM. This EC50 is about 2.2-fold higher than that of the molecule before.

Molecule B12 had an EC50 of 4.24 nM.

For B13, a half-maximal response (EC50) required 4.4 nM.

Take B14: the EC50 was determined as 5.23 nM.

B15 showed a concentration for a half-maximal effect (EC50) of 13 nM.

In turn, B16 displayed a 50% effective concentration (EC50) of 3.48 nM.

The molecule B17 displayed an EC50 of 21.6 nM.

In the case of B18, the concentration for a half-maximal effect (EC50) is 15.8 nM.

Molecule B19 registered an EC50 of 4.27 nM.

The molecule B20 came in with an EC50 of 10.1 nM.

Molecule B21 showed an EC50 of 22.6 nM.

Molecule B22 returned an EC50 of 2.44 nM.

For the molecule B23, the EC50 was found to be 12.3 nM.

The next assay deals with T1, CD3 on Jurkat cells and on human T cells. In words: flow cytometry on Jurkat cells. This is another data set of the same source.
Description: Jurkat cells were plated, washed with a FACS buffer, and centrifuged at 1200 rpm for 3-5 min. Then diluted antibodies with different concentrations were added at 100 L/well. The cells were incubated at 4° C. for 0.5 h, centrifuged at 1200 rpm for 3-5 min, and washed with a FACS buffer. Then a diluted goat anti-human IgG (FITC, Abcam/ab97224) antibody was added. The cells were incubated at 4° C. for 0.5 h, centrifuged at 1200 rpm for 3-5 min, washed with a FACS buffer, and resuspended in 50 μL of a FACs buffer, and assays were performed using a flow cytometer.
B1 displayed a half-maximal effective concentration (EC50) of 0.8 nM.

For the molecule B2, it took 136 nM to reach a half-maximal effect (EC50). This EC50 is about 170-fold higher than that of the molecule before.

Molecule B3 returned an EC50 of 80.3 nM.

In the case of B4, a half-maximal effect (EC50) was put at 111 nM. The EC50 values of the last two molecules are within 1.5-fold of each other.

B5 showed an EC50 of 18.2 nM.

With B6, the concentration giving a half-maximal response (EC50) was determined as 71.4 nM.

In turn, B7 displayed an EC50 of 32.6 nM.

Molecule B24 came in with a concentration for a half-maximal effect (EC50) of 97.8 nM.

On to B8, for which the midpoint of the response, the EC50, lay at 62.5 nM.
